From patent publication US20080058276A1, “ALZHEIMER'S DISEASE THERAPEUTICS BASED ON PIN-1 CATALYZED CONFORMATIONAL CHANGES IN PHOSPHORYLATED AMYLOID PRECURSOR PROTEIN” (CORNELL RESEARCH FOUNDATION, INC., priority 2006, published 2008)
Bridge positions count the residues as written; N and C are the ends. Square brackets hold non-standard residues; d marks the D form. Ends that are not written are not given here. pT = C[C@@H](OP(=O)(O)O)[C@H](N)C(=O)O; resin = not defined here

Columns and labels:
Pin1 WW domain = molecular target: T1, Pin1 WW domain (Homo sapiens, UniProt Q13526); assay: Competitive GST-WW pulldown of 32P-AICD; format: binding; details: increasing amounts of phosphopeptide
T1 construct: made in house; host or cells: bacteria
T1 sequence (Q13526 5-39 limits assumed): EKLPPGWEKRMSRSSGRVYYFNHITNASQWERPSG
Protocol: For competitive binding assays, synthetic peptides, APPtide (EVDAAVp[…] (SEQ ID NO: 13), and its non-phosphorylated counterpart, were synthesized and purchased from Merck Co. The accuracy and purity were identified by mass spectroscopy. APPtide was dissolved in the binding buffer described in Lu et al., “A Function of WW Domains as Phosphoserine- or Phosphothreonine-binding Modules,” Science 283:1325-1328 (1999), which is hereby incorporated by reference in its entirety, and added into the GST pull down reaction for the competitive binding assay (Lu et al., “A Function of WW Domains as Phosphoserine- or Phosphothreonine-binding Modules,” Science 283:1325-1328 (1999), which is hereby incorporated by reference in its entirety).
To identify the Pin1-binding site in APP, alanine was substituted for Thr668, the only Thr/Ser-Pro motif in the APP intracellular domain (“AICD”). […] AICD, but not AICD^T668A, was phosphorylated by Cdc2 (Suzuki et al., “Cell Cycle-dependent Regulation of the Phosphorylation and Metabolism of the Alzheimer Amyloid Precursor Protein,” Embo J 13(5): 1114-22 (1994), which is hereby incorporated by reference in its entirety).

WW domain of Pin1 = WW domain of Pin1 (Homo sapiens, UniProt Q13526); assay: 15N-1H HSQC titration of {15N}-WW with peptide; format: binding; details: relative to linear pAICD
Sequence of WW domain of Pin1 (Q13526 5-39 limits assumed): as above
Protocol: The pThr668-Pro peptides were synthesized, purified, and analyzed as reported in (Ramelot & Nicholson, “Phosphorylation-induced Structural Changes in the Amyloid Precursor Protein Cytoplasmic Tail Detected by NMR,” J Mol Biol 307(3):871-84 (2001), which is hereby incorporated by reference in its entirety). […] For ^15N—^1H HSQC experiments, ^15N-E670-pT668 peptide was dissolved in the same buffer adjusted to pH 6.7, with subsequent addition of an equimolar amount of the WW domain (0.2 mM). All experiments were recorded at 25° C. on a Varian Inova 600 MHz spectrometer with the ^1H carrier set on water. ROESY data sets were acquired with spectral widths of 6 kHz (8 kHz) in t1 (t2) and 640 (2048) complex data points, and were processed as described in Ramelot & Nicholson, “Phosphorylation-induced Structural Changes in the Amyloid Precursor Protein Cytoplasmic Tail Detected by NMR,” J Mol Biol 307(3):871-84 (2001), which is hereby incorporated by reference in its entirety. […]
Natural abundance peptide (either the linear or cyclic pAICD peptide) was incrementally added to {^15N}-WW and peak shifts were monitored via ^15N—^1H HSQC spectra.

[1] = NMR (2D 1H-1H TOCSY and 1D 31P) determination of cis and trans populations of phosphopeptide; format: physicochemical; details: pThr-Pro bond, NMR on reaction mixture
Description: The cis conformation of the pThr-Pro motif in AICD is unique from the trans isomer in that it is stabilized by different hydrogen bonds, and it is more extended in backbone conformation, aside from the kink of the cis peptide bond (Ramelot & Nicholson, “Phosphorylation-induced Structural Changes in the Amyloid Precursor Protein Cytoplasmic Tail Detected by NMR,” J Mol Biol 307(3):871-84 (2001), which is hereby incorporated by reference in its entirety). It was hypothesized that the cis conformation could be stabilized by formation of a covalent bond between V667 NH and E670 COO— (hydrogen bonded in the NMR structure), thereby stabilizing the cis isomer relative to the trans. A 6-residue phosphopeptide corresponding to APP residues V667-R72 ([NH2]-V-pT-P-E-E-R-resin (SEQ ID NO: 1)) was commercially synthesized with an orthogonal blocking group on E4 (Tufts Core Facility), and sent on the resin. […] The spectra show two cis populations that most likely reflect different hydrogen bond geometries adopted in the cis isomer (Ramelot & Nicholson, “Phosphorylation-induced Structural Changes in the Amyloid Precursor Protein Cytoplasmic Tail Detected by NMR,” J Mol Biol 307(3):871-84 (2001), which is hereby incorporated by reference in its entirety).

CHO-APP cells = assay: Total Aβ secretion (ELISA) after Pin1 overexpression in CHO-APP cells; format: cell-based, Chinese hamster; details: asynchronous or mitotic cells
[2] = molecular target: T2, pThr668-Pro motif in APP (21-residue phosphopeptide G659-Q679 of APP) (Homo sapiens, UniProt P05067); assay: NMR (ROESY) analysis of Pin1-catalyzed cis/trans isomerization of the pThr668-Pro bond; format: biochemical
T2 construct: isomerization of the pThr668-Pro bond in a 21-residue phosphopeptide (G659-Q679 of APP); made in house; host or cells: peptide chemically synthesized; Pin1 recombinant (bacteria, as said in general terms)
Protocol: All experiments were recorded at 25° C. on a Varian Inova 600 MHz spectrometer with the ^1H carrier set on water. ROESY data sets were acquired with spectral widths of 6 kHz (8 kHz) in t1 (t2) and 640 (2048) complex data points, and were processed as described in Ramelot & Nicholson, “Phosphorylation-induced Structural Changes in the Amyloid Precursor Protein Cytoplasmic Tail Detected by NMR,” J Mol Biol 307(3):871-84 (2001), which is hereby incorporated by reference in its entirety. Peak intensities were obtained using Pipp (Garrett et al., “A Common-sense Approach to Peak-picking in 2-Dimensional, 3-Dimensional, and 4-Dimensional Spectra Using Automatic Computer-analysis of Contour Diagrams,” J Magn Reson 95:214-20 (1991), which is hereby incorporated by reference in its entirety), and curve fits and error analyses were performed using SigmaPlot (Systat Software, Inc.). […] Ict/Icc=kct^cat[exp(kextm)−1]/[ktc^catexp(kextm)+kct^cat] Itc/Itt=ktc^cat[exp(kextm)−1]/[kct^catexp(kextm)+ktc^cat] where kex=kct^cat+ktc^cat, and tm corresponds to the ROESY mixing time. The desired rate constants were extracted by recording ROESY spectra with different mixing times and fitting the intensity ratios obtained to the above equations. ^15N—^1H HSQC data sets were acquired with spectral widths of 1.4 kHz (10 kHz) in t1 (t2) and 512 (2048) complex data points, and were processed as described in Ramelot & Nicholson, “Phosphorylation-induced Structural Changes in the Amyloid Precursor Protein Cytoplasmic Tail Detected by NMR,” J Mol Biol 307(3):871-84 (2001), which is hereby incorporated by reference in its entirety.
In the ROESY spectrum, the intensities of exchange and diagonal peaks for a two-state isomerization reaction explicitly depend on the forward (“kct^cat”) and backward (“ktc^cat”) rate constants (FIG. 5B), and on the mixing time (“tm”).

APP = molecular target: T3, APP (Homo sapiens, UniProt P05067, T743A); assay: GST-Pin1 pulldown of APP and its mutants; format: binding; details: expressed in mitotic cells
T3 construct: expressed in transfected cells; host or cells: N18 neuroblastoma cells transfected with HA-APP (from APP/pCMV)

CHO cells = assay: Total Aβ secretion (ELISA) after co-transfection of Pin1 and APP751 in CHO cells; format: cell-based, Chinese hamster; details: Pin1 overexpression with APP751, asynchronous or mitotic cells
[3] = linear sequence; cited from earlier work

For “EVDAAVpTPEERHLS (SEQ ID NO: 13) (EVDAAV[pT]PEERHLS) [pThr668-containing APP peptide]”, the “competition of 32P-AICD binding to GST-WW” value (Pin1 WW domain) was “effectively competed”.

With “cyclic pAICD: VpTPEER (SEQ ID NO: 1) phosphopeptide cyclized by covalent bond between V667 NH and E670 COO- (V[pT]PEER; lactam N-4)” the “WW domain peak shifts upon saturation with peptide” value (WW domain of Pin1) was “smaller peak shifts”, the cis population [1] was ~30% and the trans population [1] was 70%.

With “Pin1: peptidyl-prolyl isomerase that specifically isomerizes pSer/Thr-Pro bonds; GenBank Accession No. U49070” the Aβ secretion (CHO-APP cells) was “significantly reduced”, the “difference between kct^cat and ktc^cat rates” value [2] was 10 fold and the “acceleration of pThr668-Pro isomerization rate over typical uncatalyzed isomerization rates for pThr-Pro peptides” value ([2]; 3 mM peptide, 0.05 mM Pin1, 25° C.) was “several orders of magnitude”. The “ROESY exchange cross peaks (E670-HN cis/trans)” value ([2]; catalytic amount of enzyme, 60:1 peptide:enzyme) was “exchange cross peaks were observed”, the “average lifetime of the cis isomeric state” value ([2]; in presence of Pin1) was ~0.05 s and the “average lifetime of the trans isomeric state” value ([2]; in presence of Pin1) was ~0.5 s. For the same substance, the “acceleration of isomerization of the phosphorylated Thr668-Pro motif in APP” value ([2]; visualized by NMR) was “over 1000 fold”, the “binding to APP^T668A mutant” value (APP) was “failed to bind” and the Aβ secretion (CHO cells) was “significantly reduced”.

In the case of “[NH2]-V-pT-P-E-E-R-resin (SEQ ID NO: 1) (H-V[pT]PEER-resin; not fully specified; printed as [NH2]-V-pT-P-E-E-R-resin; reading uncertain) [6-residue phosphopeptide, linear phosphopeptide corresponding to APP residues V667-R72]”, the cis conformation [3] is listed as 10% and the trans conformation [3] is listed as 90%.
